Experimental data: PMC7541481, “A unique clade of light-driven proton-pumping rhodopsins evolved in the cyanobacterial lineage” (Scientific Reports, 2020)

Key:
N2098R = target: T1, N2098R (Calothrix sp., UniProt Z9R0O1FWN2); assay: X-ray crystal structure ([…] Å); retinal isomer HPLC; format: binding; settings: covalent; Schiff base with Lys204; in meso crystals
T1 construct: crystal: E. coli cell-free synthesis; retinal analysis: synthetic codon-optimized gene in pET21a, E. coli, C-terminal His-tag, DDM-solubilized
T1 sequence (Z9R0O1FWN2 8-254): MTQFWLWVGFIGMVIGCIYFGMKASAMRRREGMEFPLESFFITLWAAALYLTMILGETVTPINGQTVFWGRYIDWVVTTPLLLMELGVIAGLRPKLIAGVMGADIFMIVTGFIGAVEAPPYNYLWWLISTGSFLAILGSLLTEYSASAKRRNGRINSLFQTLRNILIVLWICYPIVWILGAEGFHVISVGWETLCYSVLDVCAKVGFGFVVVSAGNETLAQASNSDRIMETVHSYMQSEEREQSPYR

N4075R = target: T2, N4075R (Tolypothrix sp., UniProt Z9F5K4BE25); assay: X-ray crystal structure ([…] Å); format: binding; settings: covalent; Schiff base lysine; isomer not stated for this protein
T2 construct: E. coli cell-free synthesis for crystallization, in meso
T2 sequence (Z9F5K4BE25 8-259): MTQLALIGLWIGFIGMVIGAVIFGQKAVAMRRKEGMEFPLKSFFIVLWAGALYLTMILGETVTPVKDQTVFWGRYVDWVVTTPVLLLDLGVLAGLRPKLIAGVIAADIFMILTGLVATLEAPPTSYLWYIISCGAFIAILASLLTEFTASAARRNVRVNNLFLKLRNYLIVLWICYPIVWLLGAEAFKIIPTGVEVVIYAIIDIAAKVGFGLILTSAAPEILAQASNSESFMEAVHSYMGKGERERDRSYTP

Asp85 = Asp85 (UniProt position 98, WARYADWLFTT); settings: cited from earlier work
Asp121 = Asp121 (UniProt position 121, AYRYVDWLLTV); settings: cited from earlier work
Asp97 = Asp97 (UniProt position 97, VFRYIDWLLTV); settings: cited from earlier work
Asp74 (position 74, …) = assay: UV-vis; settings: room temperature (approx. 25°C); 50 mM NaCl; seven-mix buffer (Tris, citric acid, MES, HEPES, MOPS, CHES, CAPS; 10 mM each); dark/unphotolysed state under room light, all-trans retinal bound, detergent-solubilised, folded (reversibility checked)

With `CC1=C(/C=C/C(C)=C/C=C/C(C)=C/C=O)C(C)(C)CCC1` [all-trans retinal] the “X-ray crystal structure (2.65 Å); retinal isomer HPLC” value (N2098R) was “the isomeric state of retinal was predominantly all-trans” and the “X-ray crystal structure (1.9 Å)” value (N4075R) was “Since the two structures were almost identical, only the structure of N2098R is described”.

For “Bacteriorhodopsin (BR) (Halobacterium salinarum)”, the pKa (Asp85) is listed as “Approx. 2.6”.

For “Gloeobacter rhodopsin (GR) (Gloeobacter violaceus PCC 7421)”, the pKa (Asp121) is listed as “Approx. 5.9”.

In the case of “Green-absorbing proteorhodopsin (GPR) (uncultured marine gamma proteobacterium EBAC31A08)”, the pKa (Asp97) is listed as “Approx. 7.9”.

B1: Cyanorhodopsin N2098R (Calothrix sp. NIES-2098) (protein)
chain: MTQFWLWVGFIGMVIGCIYFGMKASAMRRREGMEFPLESFFITLWAAALYLTMILGETVTPINGQTVFWGRYIDWVVTTPLLLMELGVIAGLRPKLIAGVMGADIFMIVTGFIGAVEAPPYNYLWWLISTGSFLAILGSLLTEYSASAKRRNGRINSLFQTLRNILIVLWICYPIVWILGAEGFHVISVGWETLCYSVLDVCAKVGFGFVVVSAGNETLAQASNSDRIMETVHSYMQSEEREQSPYR
B1 showed a pKa (Asp74 (position 74, …)) of under 2.0.
